From publication PMC9454918

Target: recombinant goose FST protein (148-amino-acid peptide of goose follistatin, residues 93-240) (goose)
Experiment: SDS-PAGE and Western blot; purified recombinant protein on an SDS-PAGE gel stained with Coomassie blue; Western blot with an anti-His tag antibody

stoichiometry N: 2
Substance: recombinant goose FST protein (148-amino-acid peptide of goose follistatin, residues 93-240) (domain or fragment)
